The values below come from publication PMC9834230, “The HAPSTR2 retrogene buffers stress signaling and resilience in mammals” (Nature Communications, 2023).

This data set deals with the molecule itself. As to the kind of experiment: SEC; analytical; 500 µg protein on Superdex 200 Increase 10/300 GL in PBS with 1 mM DTT, 0.3 mL/minute, 4 °C; stoichiometry estimated against standards.

B1: recombinant maltose-binding protein (MBP)-tagged HAPSTR2 (natural protein, human, UniProt A0A7P0TBJ1 1-273, looked up)
chain: MEEQQKEGEAEVAEHWFSKWERQCLAEAEQEEQLPPELQEEAAAELAGLKSEKQKLWHLFQISATAVAQLYKDSGCQQQGLSMWDPFQNAAMAVTSLYKESGDAHQRSFDLGVQVGHQRRIKDVLEWVKKGRSTIRREDLISFLCGKVPPAPPPPRTPRTPPKPPTGVTSQAVATESSSSVDVDLQPFQEAIALHGLSGAMAGISMRSGDSPQDSGVASSGRRKTSFLEDDLNPFDSEELALHLDSGGIRKRTSAQCSDGITDSPIQKRNRMV
notes: HAPSTR2, human; Vector pDest-HisMBP (Addgene 11085); No cleavage of the tags is described; Homo-oligomer by SEC; also called MBP-HAPSTR2; H2; source: E. coli BL21 (DE3), purified (Ni-NTA, dialysis); not shown: MBP, N-terminal, kept
With B1, the binding result was “binds”.
